Assays:
Experiment in all cases: ITC
[1] = biological target: T1, hBAZ2A PHD finger (residues 1673–1728), wild type (human, UniProt Q9UIF9 1673-1728)
T1 sequence (looked up): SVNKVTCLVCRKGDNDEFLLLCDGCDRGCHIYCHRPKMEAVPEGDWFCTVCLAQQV

[2] = biological target: T2, hKDM5B PHD V346A (human, UniProt Q9UGL1 305-366, V346A)
T2 sequence (looked up): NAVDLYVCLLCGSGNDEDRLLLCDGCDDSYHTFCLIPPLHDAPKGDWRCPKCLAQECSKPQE

[3] = biological target: T3, hAIRE PHD C310L (human, UniProt O43918 294-343, C310L)
T3 chain (looked up): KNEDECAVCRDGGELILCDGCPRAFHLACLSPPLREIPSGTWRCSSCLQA

ARTKQTARKSTW [Histone H3 residues 1–11 (H3-1-11W)]
binding result [1]: binds | binding result [2]: binds | fold increase in affinity against the wild type AIRE PHD [3]: ~15 fold

— article PMC6048597 (Biochemistry, 2018)
